Among the data in paper PMC8155045 are FRET efficiency and fraction of FRET (% pixels) values, retold here.

The assay concerns the target mCherry-YC (37 kDa isoform). Nature of the assay: FRET or BRET; FLIM-FRET (phasor analysis) in nuclei of live HeLa cells, eGFP donor and mCherry acceptor, all three NF-Y subunits transfected (third one untagged), 24 h after transfection, 37 degrees, 5% CO2.

B1: EGFP-YB (natural protein)
chain: MTMDGDSSTTDASQLGISADYIGGSHYVIQPHDDTEDSMNDHEDTNGSKESFREQDIYLPIANVARIMKNAIPQTGKIAKDAKECVQECVSEFISFITSEASERCHQEKRKTINGEDILFAMSTLGFDSYVEPLKLYLQKFREAMKGEKGIGGAVTATDGLSEELTEEAFTNQLPAGLITTDGQQQNVMVYTTSYQQISGVQQIQFS
On to B1, for which the FRET efficiency came to 16% and the fraction of FRET (% pixels) was found to be 38.2 % pixels.
